How the values were obtained:
[1] = biological target: 52SFK R316A (human adenovirus type 52 (HAdV-52)); test: gas-phase electrophoretic mobility molecular analysis (GEMMA); 20 mM ammonium acetate pH 7.8, 0.005% Tween 20; 0.05 mg/ml (52SFK wt, mutants 1-3) or 0.06 mg/ml (mutants 4-6)
[2] = biological target: 52SFK N308E (human adenovirus type 52 (HAdV-52)); test: as above
[3] = biological target: 52SFK N318A (human adenovirus type 52 (HAdV-52)); test: as above
[4] = biological target: HAdV-52 short fiber knob (human adenovirus type 52 (HAdV-52)); test: crystal structure; 52SFK crystals soaked with 20 mM 2-O-methyl sialic acid; 1.65 Å; threefold NCS
[5] = biological target: HAdV-52 short fiber knob (human adenovirus type 52 (HAdV-52)); test: gas-phase electrophoretic mobility molecular analysis (GEMMA); 20 mM ammonium acetate pH 7.8, 0.005% Tween 20; 0.05 mg/ml (52SFK wt, mutants 1-3) or 0.06 mg/ml (mutants 4-6)
[6] = biological target: HAdV-5 virion (Ad75; source ATCC); test: radioligand binding; competition: soluble CAR-D1 preincubated with 35S-labelled virions for 1 h on ice before the virions were added to A549 cells; read-out is the cell-bound radioactivity; concentration of CAR-D1 not stated
[7] = biological target: HAdV-52 virion (strain TB3-2243) (human adenovirus type 52 (HAdV-52)); test: as above
[8] = biological target: 52SFK R316E (human adenovirus type 52 (HAdV-52)); test: gas-phase electrophoretic mobility molecular analysis (GEMMA); 20 mM ammonium acetate pH 7.8, 0.005% Tween 20; 0.05 mg/ml (52SFK wt, mutants 1-3) or 0.06 mg/ml (mutants 4-6)
[9] = biological target: Recombinant human CAR (CXADR Fc chimera; full length extracellular D1D2 domain) (human) (UniProt P78310); test: SPR; CAR-D1D2 Fc chimera or CAR-D1 amine-coupled to CM5 (900-1100 RU); 52LFK or 52SFK as analytes, two-fold series 8 nM to 2 μM; 25°C; HBS-EP+ (10 mM HEPES, 150 mM NaCl, 3 mM EDTA, 0.005% P20, pH 7.4); Biacore T100
[10] = biological target: soluble CAR-D1; test: as above
[11] = biological target: 52SFK R316E/N318A (human adenovirus type 52 (HAdV-52)); test: gas-phase electrophoretic mobility molecular analysis (GEMMA); 20 mM ammonium acetate pH 7.8, 0.005% Tween 20; 0.05 mg/ml (52SFK wt, mutants 1-3) or 0.06 mg/ml (mutants 4-6)
[12] = biological target: 52SFK R316A/N318A (human adenovirus type 52 (HAdV-52)); test: as above

Sequence of Recombinant human CAR (CXADR Fc chimera; full length extracellular D1D2 domain) (human) (P78310 20-237, change not shown): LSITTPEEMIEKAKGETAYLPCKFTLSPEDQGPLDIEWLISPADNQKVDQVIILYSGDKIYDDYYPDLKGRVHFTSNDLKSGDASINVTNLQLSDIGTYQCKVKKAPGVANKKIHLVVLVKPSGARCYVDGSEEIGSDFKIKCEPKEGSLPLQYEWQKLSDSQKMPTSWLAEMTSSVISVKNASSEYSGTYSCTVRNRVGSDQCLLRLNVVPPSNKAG

For 52SFK R316A (domain or fragment), the stoichiometry N [1] was 3.
In the case of 52SFK N308E (domain or fragment), the stoichiometry N [2] is reported as 3.
For 52SFK N318A (domain or fragment), the stoichiometry N [3] was 3.
In the case of “HAdV-52 short fiber knob (domain or fragment)”, the stoichiometry N [4] is reported as 3 and the stoichiometry N [5] is reported as 3.
soluble CAR-D1 (domain or fragment) showed a percent reduction of virion binding to A549 cells [6] of 50% and a percent reduction of virion binding to A549 cells [7] of 20%.
Substance 52SFK R316E (domain or fragment) has a stoichiometry N [8] of 3.
“HAdV-52 long fiber knob (domain or fragment)” was tested, and the Kd [9] was 5 nM and the Kd [10] was 2.6 nM.
For 52SFK R316E/N318A (domain or fragment), the stoichiometry N [11] was 3.
For 52SFK R316A/N318A (domain or fragment), the stoichiometry N [12] was 3.
